The target of this test is T1, soluble human GPC3 (human, UniProt P51654 25-563).
T1 construct: range 25-563; whole entry named for human GPC3 (NP_001158089.1); also called glypican 3
The test can be described thus: SPR (Biacore). For orientation: In SPR one partner is held on a chip, and binding of the other changes the refractive index at the surface.

T1 sequence (P51654 25-563 limits assumed): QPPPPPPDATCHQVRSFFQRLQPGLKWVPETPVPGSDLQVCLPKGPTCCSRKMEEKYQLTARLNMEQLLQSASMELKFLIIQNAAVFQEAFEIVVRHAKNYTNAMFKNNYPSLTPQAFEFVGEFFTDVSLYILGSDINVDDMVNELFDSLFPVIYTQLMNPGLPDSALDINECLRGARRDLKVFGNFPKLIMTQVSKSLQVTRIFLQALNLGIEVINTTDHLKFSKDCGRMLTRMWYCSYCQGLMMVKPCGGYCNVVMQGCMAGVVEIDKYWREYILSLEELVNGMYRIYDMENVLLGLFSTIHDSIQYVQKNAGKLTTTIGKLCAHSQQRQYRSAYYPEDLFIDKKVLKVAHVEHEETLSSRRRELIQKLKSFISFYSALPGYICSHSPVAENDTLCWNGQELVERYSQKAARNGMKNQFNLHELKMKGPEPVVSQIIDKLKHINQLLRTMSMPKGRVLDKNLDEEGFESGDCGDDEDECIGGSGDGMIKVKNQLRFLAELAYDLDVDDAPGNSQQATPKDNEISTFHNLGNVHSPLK

B1: H0610-G1dh/none-Hi-Kn010G3/L0129-k0 (antibody, V domains shown)
VH: QVQLVQSGAEVKKPGASVKVSCKASGYTFTDYEMHWIRQPPGQGLEWIGAIDGKTPDTAYSQKFKGRVTLTADKSTSTAYMELSSLTSEDTAVYYCTRFYSYTYWGQGTLVTVSS
VL: DIVMTQSPLSLPVTPGEPASISCRSSQSLVHSNRNTYLHWYQQKPGQAPRLLIYKVSNRRSGVPDRFSGSGSGTDFTLKISRVEAEDVGVYYCGQGTQVPYTFGQGTKLEIK
notes: one-arm
The Kd is the constant that tells how readily two partners part at equilibrium. A lower Kd goes with tighter binding. Regarding B1, the Kd came to 4.54 nM.

The values above are taken from patent publication US20250250362A1 (Chugai, published 2025).
